Values quoted from earlier work in PMC6133022.

Target: alpha-bungarotoxin (Bungarus multicinctus) (UniProt P60615)
Chain of UniProt P60615 (P60615 22-95): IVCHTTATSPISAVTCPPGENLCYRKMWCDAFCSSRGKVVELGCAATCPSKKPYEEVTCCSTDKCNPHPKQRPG

alpha7-nAChR (from UniProt P36544)
Kd: 0.094 nM
